Source: the supplement of paper PMC10567573

B1: SOAT1 (parent)
chain: PSNGRIDIKQLIAKKIKLTAEAEE

Variants of: B1
Test: protein stability index of a GFP-peptide fusion (GPS, HEK-293T) (PSI 1-6); higher = more stable
Conditions: c terminus: a fixed tail appended
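Also: lentivirally expressed fusions sorted by FACS into six bins by GFP to DsRed ratio, PSI derived from sequencing read proportions per bin multiplied by bin number.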

Variant	protein stability index
PSNGRIDIKQLIAKGIKLTAEAEE	4.05
PSNGRIDIKQLIAKRIKLTAEAEE	2.88
PSNGRIDIKQLIAKPIKLTAEAEE	4.22
PSNGRIDIKQLIAKAIKLTAEAEE	3.19
PSNGRIDIKQLIAKLIKLTAEAEE	1.87
PSNGRIDIKQLIAKNIKLTAEAEE	4.05
PSNGRIDIKQLIAKQIKLTAEAEE	3.87
PSNGRIQIKQLIAKKIKLTAEAEE	3.01
PSNGRITIKQLIAKKIKLTAEAEE	2.97
PSNGRISIKQLIAKKIKLTAEAEE	3.58
PSNGRIHIKQLIAKKIKLTAEAEE	3.65
PSNGRIVIKQLIAKKIKLTAEAEE	2.41
PSNGRIGIKQLIAKKIKLTAEAEE	3.02
PSNGRIPIKQLIAKKIKLTAEAEE	3.23
PSNGRIKIKQLIAKKIKLTAEAEE	3.14
PSNGRICIKQLIAKKIKLTAEAEE	3.12
PSNGRIDIKQLIAIKIKLTAEAEE	2.71
PSNGRIDIKQLIAHKIKLTAEAEE	3.46
PSNGRIDIKQLIATKIKLTAEAEE	3.34
PSNGRIDIKQLIAMKIKLTAEAEE	2.96
PSNGRIDIKQLIACKIKLTAEAEE	3.37
PSNGRDDIKQLIAKKIKLTAEAEE	4.4
PSNGRVDIKQLIAKKIKLTAEAEE	3.32
PSNGRYDIKQLIAKKIKLTAEAEE	3.51

Variant	protein stability index
PSNGREDIKQLIAKKIKLTAEAEE	4.06
PSNGRTDIKQLIAKKIKLTAEAEE	3.58
PSNGRMDIKQLIAKKIKLTAEAEE	2.56
PSNGRIDIKPLIAKKIKLTAEAEE	3.88
PSNGRIDIKDLIAKKIKLTAEAEE	3.58
PSNGRIDIKCLIAKKIKLTAEAEE	3.19
PSNGRIDIKYLIAKKIKLTAEAEE	2.43
PSNGRIDIKWLIAKKIKLTAEAEE	2.35
PSNGRIDIKNLIAKKIKLTAEAEE	3.21
PSNGRIDIKLLIAKKIKLTAEAEE	3.18
PSNGRIDIKILIAKKIKLTAEAEE	2.18
PSNGRIDIKMLIAKKIKLTAEAEE	2.67
PSNGRIDIKELIAKKIKLTAEAEE	3.73
PSNGRIDIKQLIAKKIKDTAEAEE	4.13
PSNGRIDIKQLIAKKIKKTAEAEE	3.23
PSNGRIDIKQLIAKKIKRTAEAEE	3.45
PSNGRIDIKQLIAKKIKMTAEAEE	3.27
PSNGRIDIKQLIAKKIKCTAEAEE	3.67
PSNGRIDIKQLIAKKIKETAEAEE	4.14
PSNGRIDIKQLIAKKIKITAEAEE	3.72
PSNGRIDIKQLIAKKIKVTAEAEE	3.53
PSNGRIDIKQLIAKKIKPTAEAEE	4.04
PSNGRIDIKQLIAKKIKFTAEAEE	3.38
PSNGAIDIKQLIAKKIKLTAEAEE	3.95

Variant	protein stability index
PSNGSIDIKQLIAKKIKLTAEAEE	3.75
PSNGQIDIKQLIAKKIKLTAEAEE	3.13
PSNGDIDIKQLIAKKIKLTAEAEE	4.47
PSNGMIDIKQLIAKKIKLTAEAEE	3.55
PSNGGIDIKQLIAKKIKLTAEAEE	4.04
PSNGEIDIKQLIAKKIKLTAEAEE	4.42
PSNGCIDIKQLIAKKIKLTAEAEE	3.66
PSNGRIDIKQLIAKKIKLTAWAEE	2.12
PSNGRIDIKQLIAKKIKLTAAAEE	2.74
PSNGRIDIKQLIAKKIKLTAQAEE	3.05
PSNGRIDIKQLIAKKIKLTARAEE	2.95
PSNGRIDIKQLIAKKIKLTAPAEE	2.92
PSNGRIDIKQLIAKKIKLTAMAEE	2.4
PSNGRIDIKQLIAKKIKLTACAEE	2.78
PSNGRIDIKQLIAKKIKLTAFAEE	1.97
PSNGRIDIKQLIAKKIKLTAYAEE	2.21
PSNGRIDIKQLIAKKIKLTASAEE	3.02
PSNGRIDIKQLIAKKIKLTAHAEE	3.13
PSNGRIDIRQLIAKKIKLTAEAEE	2.74
PSNGRIDIPQLIAKKIKLTAEAEE	3.69
PSNGRIDIDQLIAKKIKLTAEAEE	3.87
PSNGRIDIQQLIAKKIKLTAEAEE	3.47
PSNGRIDIGQLIAKKIKLTAEAEE	3.39
PSNGRIDIFQLIAKKIKLTAEAEE	2.06

Variant	protein stability index
PSNGRIDIIQLIAKKIKLTAEAEE	2.29
PSNGRIDIKQLIAKKIKLTAEAHE	2.67
PSNGRIDIKQLIAKKIKLTAEAME	2.06
PSNGRIDIKQLIAKKIKLTAEAKE	3.15
PSNGRIDIKQLIAKKIKLTAEAQE	2.35
PSNGRIDIKQLIAKKIKLTAEANE	2.93
PSNGRIDIKQLIAKKIKLTAEACE	2.33
PSNGRIDIKQLIAKKIKLTAEAGE	2.98
PSNGRIDIKQLIAKKIKLTAEADE	3.3
PSNGRIDIKQLIAKKIFLTAEAEE	3.15
PSNGRIDIKQLIAKKIQLTAEAEE	3.5
PSNGRIDIKQLIAKKIRLTAEAEE	2.99
PSNGRIDIKQLIAKKIPLTAEAEE	3.84
PSNGRIDIKQLIAKKIILTAEAEE	2.84
PSNGRIDIKQLIAKKIGLTAEAEE	3.55
PSNGRIDIKQLIAKKILLTAEAEE	3.12
PSNGRIDWKQLIAKKIKLTAEAEE	3.08
PSNGRIDPKQLIAKKIKLTAEAEE	3.38
PSNGRIDCKQLIAKKIKLTAEAEE	4.06
PSNGRIDVKQLIAKKIKLTAEAEE	3.88
PSNGRIDGKQLIAKKIKLTAEAEE	3.89
PSNGRIDHKQLIAKKIKLTAEAEE	3.12
